Laboratory results from US20240108702A1, “Use Of Naturally Occurring Cyclic Peptides For Treatment Of SARS-COV-2 Infection” (The University of Southern California, priority 2021, published 2024).
“And” between values parts separate entries of the source, which are not always exact repeats. Identical values can stand only once. “Also recorded” adds a separate entry of the source. Where no end group is shown, it is not given here. [ ]: non-standard residue; d: D form. 14C‑Gly = 14C labelled glycine

Assays:
SARS-CoV-2 = experiment: Antiviral assay, SARS-CoV-2 replication in Calu3 2B4 cells (RT-qPCR); type: cell-based; details: 24 h
TMPRSS2 [1] = target: T1, TMPRSS2 (Homo sapiens, UniProt O15393); experiment: Cellular TMPRSS2 inhibition assay in Caco-2 cells; type: cell-based; design: using Caco-2 and Calu3 cells, both of which express surface TMPRSS2; endogenous in cells; host or cells: Caco-2 cells
Protocol: Caco-2 cells (1×10^5 per well) were incubated in 96 well plates with 0 to 50 μg/ml of the indicated peptide in the presence of a TMPRSS2 substrate (Boc-Leu-Gly-Arg-AMC) in 50 mM Tris-HCl, pH 7.4. Substrate conversion was monitored in a fluorescence plate reader for 2 hours and inhibition of enzyme activity was expressed relative to a solvent control.
(§1) TMPRSS2 inhibition assays. Peptides (0-50 μg/ml) were tested for their inhibitory activities against TMPRSS2 in cellular assays using Vero E6 cells, Caco-2 cells, or Calu-3 cells using standard conditions. TMPRSS2 activity was assayed in real time for 120 min by monitoring the cleavage of the TMPRSS2 substrate, Boc-Leu-Gly-Arg-AMC. Following the 2 h enzyme assay, cells were evaluated for viability using the CellTiter-Glo cellular toxicity assay.

TMPRSS2 [2] = target: T1, TMPRSS2; experiment: Cellular TMPRSS2 inhibition assay in Calu3 cells; type: cell-based; design: endogenous in cells; host or cells: Calu3 (Calu-3) cells; details: Calu3 cells
Protocol: as §1

[3] = Biodistribution of 14C-radiolabeled Peptide 1 in female rats; type: in vivo, SD rats
Protocol: Biodistribution [^14C]-radiolabeled Peptide 1 (SEQ ID NO. 1) in female rats: Five SD rats (195 and 200 g b.w.) with jugular vein catheters (JVC) were each injected with 200 μL of 5 mg/mL Peptide 1 (SEQ ID NO. 1) in saline containing ˜4 million CPM of [^14C]-Peptide 1. The ^14C-Peptide 1 (SEQ ID NO. 1) was created by substituting the natural glycine residue on position 1 of the cyclic peptide with a ^14C labeled glycine. The JVC line was cleaned with 70% isopropyl alcohol, and the line plug was removed. A new 25 G blunt needle with a 1 mL syringe containing injectable solutions was used for each injection. The JVC line was first cleared with 100 μL saline, followed by the Peptide 1 (SEQ ID NO. 1) solution, then cleared with an additional 100 μL of saline. Tissues and organs were harvested into separated vials and weighed. Small organs such as lymph nodes, kidneys, and heart/lungs were processed whole. Large organs (e.g., liver, muscles, subcutaneous fat pads) were sampled from representative areas or those of interest (e.g., subcutis at the injection site). Organs were then dissolved in 2 mL Solvable™ (Perkin Elmer 6NE9100) for up to 1 g of tissue. For a large section of skin and other organs, 4 or 6 mL were added. Vials were incubated in a 60° C. water bath for 18-22 hours, then removed and allowed to cool to room temperature. […]

TMPRSS2 [4] = target: TMPRSS2 (UniProt O15393 1-492, limits assumed); experiment: cell-based or functional assay
Chain of TMPRSS2 (UniProt O15393 1-492, limits assumed) (O15393 whole entry): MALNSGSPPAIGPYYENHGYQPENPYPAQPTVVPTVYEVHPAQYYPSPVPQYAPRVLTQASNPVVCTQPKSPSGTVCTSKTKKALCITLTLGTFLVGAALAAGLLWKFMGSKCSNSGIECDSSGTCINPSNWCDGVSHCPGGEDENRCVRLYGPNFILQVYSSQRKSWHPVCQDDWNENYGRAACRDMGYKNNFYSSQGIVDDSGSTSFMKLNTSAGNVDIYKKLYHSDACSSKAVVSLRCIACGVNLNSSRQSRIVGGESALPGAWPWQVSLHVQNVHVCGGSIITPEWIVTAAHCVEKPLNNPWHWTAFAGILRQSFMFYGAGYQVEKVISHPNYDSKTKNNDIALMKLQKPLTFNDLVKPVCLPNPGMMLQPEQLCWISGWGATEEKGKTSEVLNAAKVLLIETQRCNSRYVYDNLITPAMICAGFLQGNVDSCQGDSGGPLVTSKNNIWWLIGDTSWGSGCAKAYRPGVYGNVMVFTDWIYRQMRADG

T1 sequence (O15393 whole entry): as above

Peptide 5: naturally occurring cyclic peptide (theta defensin), SEQ ID NO. 5, FIG. 1B (GICRCLCRRGVCRCICVL; not fully specified (bridges); also: cyclic; listed as Macaca mulatta)
SARS-CoV-2 viral replication (N gene expression relative to ACTB) (SARS-CoV-2): no apparent antiviral effect; also recorded: inactive | TMPRSS2 inhibitory activity (TMPRSS2 [1]; highest concentration tested (50 μg/mL), cell line not stated): no TMPRSS2 inhibitory activity

Peptide 3: naturally occurring cyclic peptide (theta defensin), SEQ ID NO. 3, FIG. 1A (GFCRCICTRGFCRCICTR; cyclic; listed as Macaca mulatta)
inhibition of TMPRSS2 (TMPRSS2 [1]; Caco-2 cells, 0 to 50 μg/ml, FIG. 10): higher than Peptide 1 | inhibition of TMPRSS2 (TMPRSS2 [2]): similarly inhibited TMPRSS2

Peptide 2: naturally occurring cyclic peptide (theta defensin), SEQ ID NO. 2, FIG. 1A (GVCRCLCRRGVCRCLCRR; cyclic; listed as Macaca mulatta)
SARS-CoV-2 viral replication (N gene expression relative to ACTB) (SARS-CoV-2): highly effective in blocking viral replication

^14C-Peptide 1: created by substituting the natural glycine residue on position 1 of the cyclic peptide with a 14C labeled glycine ([14C‑Gly]FCRCLCRRGVCRCICTR; not fully specified (bridges); also: cyclic; listed as Macaca mulatta)
tissue distribution (density of 14C) ([3]; 1 h after i.v. administration): highest density measured in the liver, followed by the kidney | 14C counts recovered in urine ([3]; single i.v. dose equivalent to 5 mg/kg, 24 h): 7% and 8.5%

B1: Peptide 1 (SEQ ID NO. 1) (peptide)
peptide: cyclo(GFCRCLCRRGVCRCICTR)
modifications: disulfide (positions not given here); also: three disulfide bonds, pairing not given here
IC50 of enzyme inhibition (cleavage of Boc-Leu-Gly-Arg-AMC by cells) (TMPRSS2 [4]): 6.5 to 8 µg/mL
